Test system: phiC31 integrase (Streptomyces phage phiC31?)
Experiment: cell_activity
Conditions: in E. coli, 1% L-arabinose, 32 C, 60-120 min; intramolecular attB x attP recombination giving minicircle

phiC31 attB x attP sites flanking expression cassette (pBAD.phiC31.RHB)
activity (% recombination): > 97

Source: patent publication US20180010135
